From publication doi:10.1101/2020.04.11.018549v1 (biorxiv, 2020)

T1: RjoADP-GlcPPase (Rhodococcus jostii, UniProt Q0S3Y4)
T1 sequence (Q0S3Y4 1-404): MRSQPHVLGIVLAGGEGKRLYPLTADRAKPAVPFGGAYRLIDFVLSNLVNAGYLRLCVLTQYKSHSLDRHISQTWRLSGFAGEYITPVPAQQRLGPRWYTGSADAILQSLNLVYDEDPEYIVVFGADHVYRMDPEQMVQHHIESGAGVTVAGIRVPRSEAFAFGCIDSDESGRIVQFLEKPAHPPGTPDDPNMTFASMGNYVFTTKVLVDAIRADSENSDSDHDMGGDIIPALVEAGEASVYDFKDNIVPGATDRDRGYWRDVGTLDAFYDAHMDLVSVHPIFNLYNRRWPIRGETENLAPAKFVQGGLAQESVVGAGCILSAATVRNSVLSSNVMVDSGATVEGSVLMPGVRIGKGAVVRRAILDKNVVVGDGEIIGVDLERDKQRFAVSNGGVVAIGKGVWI

B1: RfaADP-GlcPPase (Rhodococcoides fascians) (protein)
chain: MRTQPHVLGIVLAGGEGKRLYPMTADRAKPAVPFGGAYRLIDFVLSNLVNAGYLRLCVLTQYKSHSLDRHISQTWRLSGFAGEYITPVPAQQRLGPRWYTGSADAIFQSLNLVYDEDPEYIVVFGADHVYRMDPEQMVQQHIDSGAGVTVAGIRVPRSEAFAFGCIDSDENGKITQFLEKPAQPPGTPDDPDVTYASMGNYVFTTKVLVDAIKADSENSDSDHDMGGDIIPALVEAGVASVYDFNDNVVPGATERDRGYWRDVGTIDAFYDAHMDLVSVHPIFNLYNRRWPIRGSAENLPPAKFVQGGLAQESVVGAGCILSAATVRNSVLSSNVMIDSGATVEGSVLMPGVRIGKGAVVRHAILDKNVVVGDGEIVGVDLERDRERFNVSAGGVVSVGKGVWI

Tests used:
RjoADP-GlcPPase = target: T1, RjoADP-GlcPPase; assay: Pi release; format: biochemical; conditions: read-out: S0.5; no effector; ATP, 10 mM MgCl2, pH 8.0, 37°C
purified protein [1] = substrate: Nc1ncnc2c1ncn2[C@@H]1O[C@H](COP(=O)(O)OP(=O)(O)OP(=O)(O)O)[C@@H](O)[C@H]1O; assay: purified protein; conditions: no effector, Glc-1P, 10 mM MgCl2, pH 8.0, 37°C
purified protein [2] = substrate: O=P(O)(O)O[C@H]1O[C@H](CO)[C@@H](O)[C@H](O)[C@H]1O; assay: purified protein; conditions: no effector, ATP, 10 mM MgCl2, pH 8.0, 37°C

Molecule | Km (RjoADP-GlcPPase) [µM] | K0.5 (purified protein [1]) [mM] | K0.5 (purified protein [2]) [mM] | kcat (purified protein [2]) [s⁻¹]
O=P(O)(O)O[C@H]1O[C@H](CO)[C@@H](O)[C@H](O)[C@H]1O [Glc-1P] | 1800 |  |  | 
B1 |  | 0.58 | 1.17 ± 0.08 | 8.8
